Experimental findings from patent US20120282280A1 (Hoffmann-La Roche, published 2012) are described below.

Assay [1] has as its target DIG-BP4 (digoxygenated protein). Briefly: SPR (Biacore), antibody captured by anti-human IgG, DIG-BP4 injected 0.3125-10 nM, 25 C. In general terms: Surface plasmon resonance follows binding to a sensor surface in real time, without labels.
Assay [2] concerns the target DIG-Myoglobin (mono-digoxygenated protein). The assay can be described thus: SPR (Biacore), DIG-Myoglobin as analyte; lower end of the range, tied to <DIG>hu2 by Table 3a.
The target is the same in assay [3]. The assay can be described thus: SPR (Biacore), DIG-Myoglobin as analyte.
For assay [4] the target is unchanged. The assay can be described thus: SPR (Biacore), DIG-Myoglobin as analyte, replicate.
The target is the same in assay [5]. Briefly: SPR (Biacore), DIG-Myoglobin as analyte. The source holds these as a separate data set.
Assay [6] concerns the target DIG-BP4 (digoxygenated protein). Briefly: SPR (Biacore), antibody captured by anti-mouse IgG, DIG-BP4 injected 0.3125-10 nM, 25 C.
For assay [7] the target is unchanged. Briefly: SPR (Biacore), legend of FIG. 10d (Table 3 and the text print 33 pM).

DIG-Myoglobin (mono-digoxygenated protein), sequence (P68082 2-154): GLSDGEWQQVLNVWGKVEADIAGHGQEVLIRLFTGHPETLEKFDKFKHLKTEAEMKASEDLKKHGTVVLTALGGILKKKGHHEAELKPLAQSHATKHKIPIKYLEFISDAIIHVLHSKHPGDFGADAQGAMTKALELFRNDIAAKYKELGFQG

B1: humanized <Dig> IgG (antibody, V domains shown)
VH: QVQLVESGGGLVKPGGSLRLSCAASGFTFSDYAMSWIRQAPGKGLEWVSSINIGATYIYYADSVKGRFTISRDNAKNSLYLQMNSLRAEDTAVYYCARPGSPYEYDKAYYSMAYWGQGTTVTVSS
VL: DIQMTQSPSSLSASVGDRVTITCRASQDIKNYLNWYQQKPGKAPKLLIYYSSTLLSGVPSRFSGSGSGTDFTLTISSLQPEDFATYYCQQSITLPPTFGGGTKVEIKR
notes: also called <DIG>hu2; <DIG>-hu2
For B1, the equilibrium dissociation constant (Kd) was less than 0.076 nM in assay [1], 15 to 25 nM in assay [2], 15.8 nM in assay [3] and 11.8 nM in assay [4]. The koff in assay [3] was 0.00982 s⁻¹; in assay [4], 0.00881 s⁻¹. For the same molecule, the kon in assay [3] worked out at 620000 M⁻¹ s⁻¹; in assay [4], 749000 M⁻¹ s⁻¹.

B2: murine <Dig> IgG1 kappa from mouse hybridoma clone 19-11 (antibody, V domains shown)
VH: EVQLVESGGGLVKPGGSLKLSCAVSGFTFSDYAMSWIRQTPENRLEWVASINIGATYAYYPDSVKGRFTISRDNAKNTLFLQMSSLGSEDTAMYYCARPGSPYEYDKAYYSMAYWGPGTSVTVSS
VL: DVQMTQSTSSLSASLGDRVTISCRASQDIKNYLNWYQQKPGGTVKLLIYYSSTLLSGVPSRFSGRGSGTDFSLTITNLEREDIATYFCQQSITLPPTFGGGTKLEIK
notes: also called murine DIG-IgG 19-11; <DIG>M-19-11
Regarding B2, the “fold better affinity than <DIG>-hu2 and the disulfide-stabilized <DIG> scFv” value in assay [5] is roughly 100 fold. Moreover, the Kd in assay [6] worked out at 0.033 nM; in assay [3], 0.386 nM; in assay [4], 0.295 nM; in assay [7], 33 nM. Moreover, the values for the koff in assay [3] and in assay [4] were 0.000676 s⁻¹ and 0.000675 s⁻¹, respectively. In addition, the kon in assay [3] turned out to be 1.75e+06 M⁻¹ s⁻¹; in assay [4], 2.28e+06 M⁻¹ s⁻¹.

As usually defined, the Kd is the equilibrium constant for the complex coming apart. Read a high Kd as weaker binding. As a reminder, the koff is the rate constant with which the complex falls apart. The low end stands for a long-lived complex, the high end for a short-lived complex. Broadly, the kon is the rate constant with which the complex forms.
